In the supplement of paper PMC7125110:
± gives the standard error. For some of these results: Fewer inactive variants are shown than the library holds.

B1: glmS ribozyme (parent)
chain: AUAAAAGCGCCAGAACUACAGAAAUGUAGUUGACGAGGAGGAGGUUUAUCGAAUUUUCGGCGGAUGCCUCCAAA

Key:
Conditions in all cases: with glucosamine-6-phosphate
[1] = variants of: B1; assay: kcat; higher = faster cleavage; RNA array
Method in brief: (§1)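 A hybridised Cy3 probe tracked barcoded ribozyme variants, transcribed in situ by E. coli RNA polymerase on sequenced MiSeq chips, at 37 °C. The variants received 40 μM to 10 mM glucosamine-6-phosphate in HEPES/KCl/Mg(OAc)2 buffer. kobs came from decay fits and kcat and KM from weighted Michaelis–Menten fits.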

[2] = variants of: B1; assay: self-cleavage kobs at 40 uM GlcN6P; higher = faster cleavage; RNA array
Method in brief: as §1

[3] = variants of: B1; assay: self-cleavage kobs at 160 uM GlcN6P; higher = faster cleavage; RNA array
Method in brief: as §1

[4] = variants of: B1; assay: self-cleavage kobs at 640 uM GlcN6P; higher = faster cleavage; RNA array
Method in brief: as §1

[5] = variants of: B1; assay: self-cleavage kobs at 2500 uM GlcN6P; higher = faster cleavage; RNA array
Method in brief: as §1

[6] = variants of: B1; assay: self-cleavage kobs at 10000 uM GlcN6P; higher = faster cleavage; RNA array
Method in brief: as §1

[7] = variants of: B1; assay: KM; higher = weaker cofactor use; RNA array
Method in brief: as §1

Variant	kcat [1] [s⁻¹]	self-cleavage kobs at 40 uM GlcN6P [2] [s⁻¹]	self-cleavage kobs at 160 uM GlcN6P [3] [s⁻¹]	self-cleavage kobs at 640 uM GlcN6P [4] [s⁻¹]	self-cleavage kobs at 2500 uM GlcN6P [5] [s⁻¹]	self-cleavage kobs at 10000 uM GlcN6P [6] [s⁻¹]	KM [7] [µM]
C16U U69A	0.000112 ± 2.4e-05	7.08e-05 ± 2e-05	6.03e-05 ± 2e-05	9.39e-05 ± 3.7e-05	0.00022 ± 6.1e-05	0.000115 ± 2e-05	
C16G A33G	< 1e-05	< 1e-05					
C16U C61U	1.75e-05 ± 1.4e-06						
A15U A39G C71G	0.000145 ± 6.1e-05			0.000116 ± 3.5e-05	9.89e-05 ± 3.7e-05	0.000288 ± 0.0001	
C16G U69G	4.98e-05 ± 9.6e-06		3.78e-05 ± 1.2e-05	5.32e-05 ± 1.1e-05	5.34e-05 ± 6.2e-06		
C16U U55C C70U	0.000581 ± 5.6e-05			0.000125 ± 2.7e-05	0.000261 ± 7.6e-05	0.000482 ± 9.6e-05	2450 ± 440
C16A U45C	9.45e-05 ± 2.3e-05				8.36e-05 ± 2.3e-05	7.72e-05 ± 1.4e-05	
C16G A39C	0.000798 ± 6e-05		4.38e-05 ± 9.6e-06	0.000184 ± 2.9e-05	0.000427 ± 6.6e-05	0.000629 ± 7.2e-05	2400 ± 310
C16A G41A	4e-05 ± 4.5e-07					3.7e-05 ± 1.1e-05	806 ± 51
A15G G29C	0.00276 ± 0.00064	3.64e-05 ± 1.1e-05	0.000187 ± 5.3e-05	0.000327 ± 7.2e-05	0.00156 ± 0.00032	0.002 ± 0.00023	3540 ± 1400
A15U A53U	0.00543 ± 0.0013	9.26e-05 ± 9.9e-06	0.000245 ± 3.8e-05	0.000755 ± 0.00012	0.00314 ± 0.00055	0.0042 ± 0.00042	2950 ± 940
A15U C50U	2.32e-05 ± 2.6e-06						
C16G C58U	3.48e-05 ± 3.2e-06	< 1e-05			3.89e-05 ± 9.2e-06	3.22e-05 ± 5.6e-06	
C16U A42G	0.0195 ± 0.0085	0.000669 ± 0.0001	0.00221 ± 0.00057	0.00699 ± 0.0019	0.00906 ± 0.0027	0.0355 ± 0.0076	
A15U C50G A53U U55A	3.35e-05 ± 1.6e-05				4.02e-05 ± 1.8e-05		
C16U U56C	0.00495 ± 0.00037	4.49e-05 ± 7.9e-06	0.00024 ± 8.3e-05	0.000693 ± 0.00011	0.00199 ± 0.00037	0.00349 ± 0.00036	4050 ± 460
G26U G40U	0.000912 ± 0.00012	0.000119 ± 2.3e-05		0.000586 ± 0.00016	0.00144 ± 0.00066	0.000883 ± 0.00019	272 ± 64

Variant	kcat [1] [s⁻¹]	self-cleavage kobs at 40 uM GlcN6P [2] [s⁻¹]	self-cleavage kobs at 160 uM GlcN6P [3] [s⁻¹]	self-cleavage kobs at 640 uM GlcN6P [4] [s⁻¹]	self-cleavage kobs at 2500 uM GlcN6P [5] [s⁻¹]	self-cleavage kobs at 10000 uM GlcN6P [6] [s⁻¹]	KM [7] [µM]
C16A U30G	0.000341 ± 4.6e-05			6.82e-05 ± 1.2e-05	0.000175 ± 2.3e-05	0.000243 ± 9.7e-05	2530 ± 560
C16G U45A	0.0107 ± 0.0033	0.000245 ± 3.1e-05	0.00048 ± 0.00013	0.00226 ± 0.00044	0.00423 ± 0.00082	0.0101 ± 0.0013	2340 ± 1100
C16A U54C	0.00231 ± 0.00079	6.96e-05 ± 1.3e-05	0.000102 ± 2.6e-05	0.000575 ± 0.00013	0.000967 ± 0.00025	0.00194 ± 0.00029	
A15G G51U C71A	1.45e-05 ± 1.7e-06					< 1e-05	510 ± 210
C16A C71A	0.000128 ± 2e-05		3.26e-05 ± 1.3e-05	7.22e-05 ± 1.1e-05	0.000187 ± 3.1e-05	0.000114 ± 1.2e-05	
A15G U54C	0.0142 ± 0.0059	0.000969 ± 0.00018	0.0021 ± 0.00098			0.0181 ± 0.0046	
A20G C58U C70G	7.18e-05 ± 2.9e-05			0.000104 ± 2.6e-05	7.21e-05 ± 1.9e-05		
A15G G44U	0.00046 ± 2.8e-05		3.52e-05 ± 1.5e-05	0.000151 ± 2.5e-05	0.000252 ± 6.3e-05	0.0004 ± 3.1e-05	1550 ± 270
A15G G44A	0.000572 ± 0.00011		2.81e-05 ± 1.2e-05	0.000152 ± 2.1e-05	0.000327 ± 5.5e-05	0.00044 ± 9.5e-05	2050 ± 620
C16U G41A	0.00129 ± 0.00064	6.97e-05 ± 1.2e-05	0.000153 ± 3.2e-05	0.000403 ± 7.6e-05	0.0011 ± 0.00019		
C16A U31A	0.0016 ± 0.00038		8.65e-05 ± 2.4e-05	0.000194 ± 5.1e-05	0.000585 ± 0.00016	0.00119 ± 0.00027	3990 ± 1400
A15U A64U	1.4e-05 ± 4.2e-06	< 1e-05	< 1e-05				
C16U A64U	9.47e-05 ± 1.3e-05				7.64e-05 ± 1.2e-05	8e-05 ± 6.6e-06	
C16A A42C	< 1e-05	< 1e-05	< 1e-05		< 1e-05	< 1e-05	
C16A U69G	7.88e-05 ± 1.9e-05			7.48e-05 ± 1.5e-05	6.89e-05 ± 1.5e-05		
A15U C67A	0.00148 ± 0.00015	4.29e-05 ± 1e-05	0.000119 ± 1.6e-05	0.000447 ± 9.2e-05	0.000861 ± 0.00014	0.00127 ± 0.00019	1700 ± 250
